In patent US9206239B2, “Treatment of cancers with immunostimulatory HIV Tat derivative polypeptides” (PIN Pharma, Inc., priority 2009, dated 2015):
“Also recorded” adds a separate entry of the source.

Legend:
4T1 breast tumors = test: Kaplan-Meier survival of mice bearing 4T1 breast tumors; assay type: in vivo, BALB/c mice; details: for survival: day 47
Protocol: (§1) BALB/c were injected (SC) with 1×10^4 4T1, 1×10^5 TS/A or 2×10^5 SM1 cells, respectively, in the left mammary pad on day 0. Immunotherapy was performed by directly injecting a Tat derivative into the right flank at 0, 7, 12, and 17 days after establishment of tumors. The control group received PBS injection. […] Tumor burden (tumor volume) was measured and recorded three times weekly. Animals were sacrificed when tumors reached a volume of 15 mm in diameter and the tumors harvested and weighed.
Data were statistically analyzed using Student's t-test (Graph Pad Prism version 5; GraphPad). Data from animal survival experiments were statistically analyzed using log-rank test (Graph Pad Prism version 5).
To determine whether Nani-P2 treatment could extend survival in addition to shrinking primary tumors in mice, treatment protocols using various dosing schedules and routes (SC, IV or IT) of administration of 40 ng Nani-P2 were performed. Cohorts of ten mice per group were followed for length of survival, as assessed by use of the Kaplan-Meier product limit method. As per Columbia University Medical Center Animal Facility regulations, each mouse was euthanized at a mean tumor diameter of approximately 15 mm, or earlier if the mouse became moribund, making one of these two outcomes the defining criteria for fatality.

TS/A breast cancer cells = test: TS/A breast carcinoma model; assay type: in vivo, mice; details: for primary anti-cancer difference vs control: p<0.01
Protocol: (§2) 4T1 cells, a 6-thioguanine-resistant cell line derived from a BALB/c spontaneous mammary carcinoma was obtained from ATCC; TS/A, a murine adenocarcinoma cell line was provided by Dr. Sandra Demaria (Demaria S. et al. Clin Cancer Res. 11:728-34, 2005); and SM1, the BALB/C-derived mammary carcinoma was kindly was provided by Dr. James Allison, University of California, Berkeley. All tumor cell lines were cultured in DMEM, supplemented with 2 mM L-glutamine, 10 mM HEPES, 150 units/ml penicillin/streptomycin, 10% heat-inactivated FCS (Invitrogen), 50 μM 2-mercaptoethanol (Sigma), and 50 mg/L gentamicin (Lanza).
as §1

4T1 breast tumor cells [1] = test: 4T1 breast tumor growth in BALB/c mice; assay type: in vivo
From the text: Female BALB/c mice 6 to 8 weeks old were purchased from the Jackson Laboratory (Bar Harbor, […].). Mice were acclimated for at least 1 week before use. Mice were kept in pathogen-free conditions at the Animal Maintenance Facility of the Columbia University of Medical Center and all experiments were approved by the Institutional Animal Care and Use Committee of Columbia University of Medical Center.
as §2, §1
The therapeutic effect of systemic administration of synthetic, Tat-derived compositions in murine models of breast cancer was investigated. To compare the relative protection conferred by a small panel of different derivatives against primary breast tumor growth, female BALB/c mice were injected with 1×10^4 4T1 breast tumor cells SC into the mammary pad, and then treated with 400 ng partially-purified Tat derivatives at day 0, 7, 14 and 21 (SC injection in PBS) into the draining axillary lymph nodes.

4T1 breast tumor cells [2] = test: 4T1 breast tumor growth in BALB/c mice; assay type: in vivo; remark: listed apart in the source
[3] = test system: IFN-γ production by spleen cells; test: ELISA analysis of IFN-γ production by immune spleen cells of 4T1 tumor-bearing mice; assay type: in vivo, BALB/c mice
Protocol: FIG. 7 depicts INF-γ production from spleen cells of mice bearing 4T1 breast tumors. BALB/c mice were injected SC with 1×10^4 4T1 cells. Control animals received weekly injections of PBS, while the Nani-P2 treatment comprised once weekly SC injections (40 ng) initiated at day 0 and continued for 4 weeks. On day 33, when control mice were at endstage, the mice were sacrificed, the spleens harvested and frozen as single cell suspensions until time of assay. Spleen cells (2×10^5) and 1×10^4 mitomycin C-treated (50 μg/ml for 30 min) 4T1 stimulator cells (S) were plated into 96-well plates. After 72 hr of stimulation, the supernatants were collected and IFN-γ concentration was determined using a commercial IFN-γ ELISA kit. […] 1: no restimulation; 2: IL-4 (50 ng/ml)/GM-CSF ([…]); 3: stimulator cells/IL-4/GM-CSF; 4: stimulator cells only.
Splenocyte secretion of IFN-γ was assessed by an OPTEIA® ELISA kit (BD Biosciences). Briefly, spleen cells (1×10^5/well) from 4T1 tumor-bearing mice were cultured with or without 5×10^3/well mitomycin C (50 μg/ml)-treated 4T1 cells (used to provide tumor antigens) in DMEM in at a 20:1 E:T (effector:tumor) ratio with […] (50 ng/mL) and GM-CSF (100 ng/ml) in 96-well plates. Supernatants were collected after 72 hr and kept frozen at −80° C. until analysis without loss of activity. IFN-γ was measured in cell-free supernatants of duplicate wells by ELISA according to the manufacturer's instructions. Tumor-specific IFN-γ production was calculated by subtracting the background values measured in supernatants of spleen cells cultured with medium alone and optical density (OD) values were converted to pg/ml amounts of IFN-γ using a recombinant IFN-γ standard curve. Stimulation index (SI) was calculated as the ratio of IFN-γ in stimulated versus control cultures.
To determine whether cytotoxic T-lymphocytes play a role in tumor rejection induced by Nani-P2 therapy, an IFN-γ ELISA assay (FIG. 7) was performed to compare spleen cells of 4T1 tumor-bearing mice treated either without (Control) or with Nani-P2 (FIG. 7). […]

SM1 breast cancer cells = test: SM1 breast carcinoma model; assay type: in vivo, mice
Protocol: as §2, §1

B1: Nani-P2: HIV Tat derivative polypeptide, SEQ ID NO: 3; derivatized Tat amino terminus from an African Green Monkey variant SIV (protein)
chain: MDPKGEEDQDVSHQDLIKQYRKPRTACNNCYCKKCCFHCYACFLRKGLGITYHAFRTRRKKIASADRIPVPQQSISIRGRDSQTTQESQKKVEEQAKANLRISRKNLGDETRGPVGAGN
modifications: Nani-P2 modified HIV Tat sequence
notes: derivatized Tat amino terminus from an African Green Monkey variant SIV
survival, intratumoral administration (4T1 breast tumors; IT, 40 ng weekly x3, tumors established fourteen days): slightly inferior to SC administration | survival (4T1 breast tumors; IV, 40 ng weekly x3, tumors established fourteen days, p<0.005): 60% | survival (4T1 breast tumors; SC, 40 ng weekly x3, tumors established fourteen days, p<0.05): 20% | treated mice still alive (4T1 breast tumors; day 48, 40 ng SC, 4 doses over 21 days from day 0, p<0.001): 35% | duration of tumor growth inhibition and survival benefits past the last dosing (4T1 breast tumors; established 4T1 tumors, treated intravenously): at least 36 days | suppression of growth (TS/A breast cancer cells; 0.4 ng SC): ~50% | primary anti-cancer difference vs control (TS/A breast cancer cells; 40 ng SC): highly significant | total remission rate (TS/A breast cancer cells; at 30 days): 40% | primary anti-cancer difference vs control (TS/A breast cancer cells; lowest dose (0.4 ng SC)): highly significant | tumor burden compared to control mice receiving PBS (4T1 breast tumor cells [1]; 400 ng partially-purified derivative SC day 0, 7, 14, 21, apparent from day 15 (p<0.05)): significantly reduced tumor burden | decrease of tumor burden on average (4T1 breast tumor cells [1]; SC therapy initiated on day 0 after tumor cell injection): 53% | difference in primary tumor burden between Nani-P2 and Nani-P1-treated tumors (4T1 breast tumor cells [1]; day 21 (final dosing), 400 ng SC, p<0.01): 18 mm^3 | anti-tumor efficacy on increasing the dose (4T1 breast tumor cells [1]; dose increased to 400 ng and 2 μg (data not shown)): no further anti-tumor efficacy | difference in mean tumor volume vs control group (4T1 breast tumor cells [2]; 4 ng or 40 ng per mouse, four times over 21 days): highly significant | primary tumor burden vs PBS control, established tumors (4T1 breast tumor cells [2]; 40 ng IV weekly for three weeks from day 14, trial 50 days, p<0.01): statistically significant benefit in primary tumor suppression; also recorded: highly significant | animals with complete remission, disease-free (4T1 breast tumor cells [2]; 40 ng IV weekly x3 from day 14, at 50 days): 1/10 and One of 10 | mice with regression of tumor at the initial treatment (4T1 breast tumor cells [2]; 40 ng IV, initial treatment on day 14): 7/10 | decrease of tumor burden on average at maximal effect (4T1 breast tumor cells [2]; SC therapy begun on day 13, tumors about 5 mm in diameter): 52% | breast tumor growth inhibitory effect on 4T1 tumors (4T1 breast tumor cells [2]; highly-purified, SC, 0.4 ng to 40 ng per dose): dose-dependent | baseline levels of INF-γ secreted by splenocytes vs PBS-treated control mice ([3]; 40 ng SC weekly for 4 weeks, no restimulation): 8 fold | INF-γ production in cultures of spleen cells vs control ([3]; all conditions of assay): significantly (p<0.01**) higher | stimulation index vs control ([3]; tumor stimulators + IL4 + GM-CSF added at initiation of culture): 53 | difference in primary tumor growth between control and treated animals (SM1 breast cancer cells; 40 ng SC days 0, 7, 14, 21, p<0.01): highly statistically significant | animals remaining in remission (SM1 breast cancer cells; 28 days following implant, one week after termination of the regimen): 40% | animals in which tumor growth was suppressed (SM1 breast cancer cells; for 16 days, 40 ng SC days 0, 7, 14, 21): 100%
